What was measured:
[1] = biological target: T1, amphyphisin SH3 (AMPH_HUMAN), P49418; assay: SPOT array
T1 chain: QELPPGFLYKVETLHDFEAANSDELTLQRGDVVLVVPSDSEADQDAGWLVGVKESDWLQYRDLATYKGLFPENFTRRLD

[2] = biological target: endophilin SH3 (SH3G2_HUMAN), Q99962; assay: SPOT array

Binder | normalised SPOT signal, Boehringer light units (BLU); mean over the file's lines of this peptide [1] | normalised SPOT signal, Boehringer light units (BLU); mean over the file's lines of this peptide [2]
SNPVPPRPPPPSLA [Q9UBP0 16-30] | 143 | 11600
SNTPPPRPPKPSHL [Q8WWW8 303-317] | 2120 | 18000
SPAPPHKPPNTREN [P51816 884-898] | 48.2 | 78.5
SPARPRRPHASRDG [Q9H8S7 107-120] | 13800 | 8710
SSELIERPSKKDGF [Q9H0X9 173-186] | 120 | 71.5
SPSVPAKPPLAEFE [Q15742 478-492] | 47.9 | 67.1
SPDKFKRPTPPPSP [Q16204 419-432] | 15.7 | 35.9
SPDSLSRPRRTVFT [Q9P217 544-557] | 482 | 90.9
SPEAPRRPKQRPAP [O00294 24-37] | 62.1 | 319
SPGFPARPGRGRPY [Q9UQ90 30-43] | 568 | 754
SPGPPYRPPSQRLR [Q8WVQ2 69-83] | 547 | 5840
SPGVLRRPRRRPAA [Q9Y469 13-26] | 2430 | 190
SPIKPKRPFVESNV [Q9ULS2 141-154] | 120 | 2110
SPKSPGRPWKSVSE [P01042 611-624] | 228 | 117
SPPELKRPRLDENK [Q13112 538-551] | 51 | 77.2
SSGSPDRPGRRGRR [Q9BXQ6 174-187] | 3220 | 150

Binder | normalised SPOT signal, Boehringer light units (BLU); mean over the file's lines of this peptide [1] | normalised SPOT signal, Boehringer light units (BLU); mean over the file's lines of this peptide [2]
SPPSPDRPPHSQTS [Q03164 2117-2131] | 56.4 | 69.3
SPPVPPRPPSSGPP [Q9UKN7 661-675] | 1270 | 1880
SPQAPRRPLPQVAT [Q13421 406-419] | 587 | 437
SPQEPKRPSQLPSP [O14686 4038-4051] | 52.9 | 33
SPRALWRPPRRRTQ [O94807 430-443] | 1010 | 1210
SPRLPRRPTVESHH [O94883 131-144] | 1290 | 4830
SPSVPKRPKLPAPT [P18887 266-279] | 1780 | 22000
SPTVPIKPPSIPNG [Q13557 471-485] | 66.5 | 112
SPVHLRRPQSPGAS [Q9Y556 324-337] | 31.7 | 56.3
SPVLPARPPPPPLP [O75412 1038-1052] | 713 | 1520
SSGRPGRPPGPAAA [Q99491 157-171] | 72.6 | 1800
SPVLPARPPPPPLS [O00508 1114-1128] | 399 | 4080
SQAFIYRPIRQRVY [Q9NU43 22-35] | 621 | 102
SQALPPRPPPPAPV [Q13330 692-706] | 44.7 | 2540
SQEILRRPIVASEL [Q9UHW3 40-53] | 21.1 | 53.9
